The assay addresses PfCSP full length (Plasmodium falciparum (isolate NF54), UniProt P19597). The assay can be described thus: ELISA AUC.

Where a chain is given by its changes, count along the chain named.

The values that follow come from article PMC10720262 (2023).

Sequence of PfCSP full length (P19597 20-375): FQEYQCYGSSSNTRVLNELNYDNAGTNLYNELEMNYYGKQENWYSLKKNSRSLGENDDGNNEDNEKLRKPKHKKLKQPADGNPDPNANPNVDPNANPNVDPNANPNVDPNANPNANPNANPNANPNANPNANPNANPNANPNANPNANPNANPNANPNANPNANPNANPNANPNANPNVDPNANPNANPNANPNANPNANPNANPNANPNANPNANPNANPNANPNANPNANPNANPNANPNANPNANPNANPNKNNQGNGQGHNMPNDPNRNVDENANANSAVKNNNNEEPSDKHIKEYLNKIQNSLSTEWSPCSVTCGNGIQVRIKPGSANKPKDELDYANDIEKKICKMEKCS

B1: CL-510514 (antibody, V domains shown)
VH: QVQLVESGGGVVQPGRSLRLSCTTSGFTFSNFGMHWVRQAPGKGLEWVALIWYDGSNKYYADSVKGRFTISRDNSKNTLYLQMNGLRAEDTAVYYCARDGGYYYGSGGAFDIWGQGTMVTVSS
VL: not shown
modifications: peptides N-terminally acetylated and C-terminally amidated
The molecule B1 returned a binding score of 2.12.

B2: CL-510499 (antibody, V domains shown)
VH: QVQLVESGGGLVQPGRSLTLSCAASGFTFSNYGMHWVRQTPGKGLEWVALIRYDGSYKFYADSVKGRFTISRDNSKNTLYLQMNSLRAEDTAIYFCARDGDYSNSAGDFDYWGQGTLVTVSS
VL: EIVLTQSPGTLSLSPGERATLSCRASQSVSSTNLAWYQQKPGQAPRLLIYGVSSRATGIPDRFSGSGSGTDFTLTINRLEPEDFAVYYCQQHGRSFTFGPGTKVEIK
modifications: peptides N-terminally acetylated and C-terminally amidated
On to B2, for which the binding score was determined as 2.06.

B3: CL-531286 (antibody, V domains shown)
VH: QVQLVESGGGLVQPGRSLRLSCAASGFTFSSSGMHWVRQAPGKGLEWVAVIWYDGSNKFYADSVKGRFTISRDNSKNTLYLQMNSLRAEDTAVYYCARSGYDILTGYFNFFDPWGQGTLVTVSS
VL: B2 VL with T32S, N33H, V52A, N77S, Q90H, H92Y, G93V, R94S, E105D, I106F
modifications: peptides N-terminally acetylated and C-terminally amidated
Consider B3, for which the binding score came to 2.29.

B4: CL-460506 (antibody, V domains shown)
VH: QVQLVESGGGVVQPGRSLRLSCAASGFTFSNYGMHWVRQAPGKGLEWMAIIWYDGSNKYYADSVKGRFTISRDNSMNTLYLQMNSLRPEDTALYYCARAFYYGSGTLDYWGQGTLVTVSS
VL: EIVLTQSPATLSVSPGERATLSCRASQSVSSHLAWYQQKFGQAPRLLIYGASNRATGIPARFSGSGSGTEFTLTISILQSEDFAVYYCQQYNNWFTFGPGTKIDIK
modifications: peptides N-terminally acetylated and C-terminally amidated
Take B4: the binding score is 2.2.

B5: CL-511776 (antibody, V domains shown)
VH: QVQLVESGGGVVQPGRSLTLSCAASGFTFSNFGMHWVRQAPGKGLEWMAVIWYDGNNEFYADSVKGRFTISRDNSKNMLYLHMNSLRAEDTAIYYCAREGDYSASGSHWLFDPWGQGTQVTVSS
VL: DIQMTQSPSTLSASVGDSITITCRASQSINIWLAWYQQKPGKAPNLLIYKASSLESGVPSRFSGSGSGTEFTLTINSLQPDDFATYYCQQYNNYVTFGGGTKVEIK
modifications: peptides N-terminally acetylated and C-terminally amidated
Take B5: the binding score is 2.14.

B6: CL-444387 (antibody, V domains shown)
VH: QVHLVESGGGVVQPGRSLRLSCVASGFSFSSYGMHWVRQAPGKGLEWVAIIWYDGSYTYYADSVKGRFTISRDNSKNTLYLQMNSLRVEDTAVYYCAKVGLSYNGRTGAFDIWGQGTMVTVSS
VL: not shown
modifications: peptides N-terminally acetylated and C-terminally amidated
For the molecule B6, the binding score stood at 2.3.

B7: Ky15.3 (antibody, V domains shown)
VH: QVQLVESGGGVVQPGRSLRLSCVASGFTFSNAGMHWVRQTPGKGLEWVAIIWYDGSIKYYGESVKGRFTISRDNSKNTLYLEMSSLRAEDTAVYFCVRAYSGSLYDKYGMDVWGQGTTVIVSS
VL: DIQMTQSPSTLSASVGDRVTISCRASQTISTWLAWFQQKPGKAPKLLIYAASSLQSGVPSRFSGSGSGTDFTLTISNLQPDDFATYYCQQFNSYWTFGQGTKVEIK
modifications: peptides N-terminally acetylated and C-terminally amidated
With B7, the binding score turned out to be 2.2.

B8: CL-510469 (antibody, V domains shown)
VH: QVQLVESGGGVVQPGRSLRLSCAASGFTFSSYGMHWVRQAPGKGLEWVAVIWYDGSNQFYTDSVKGRFTISRDNSKNTLYLHMNSLRVEDTAIYYCARDGDYSSSAGDFDYWGQGTLVTVSS
VL: not shown
modifications: peptides N-terminally acetylated and C-terminally amidated
As for B8, the binding score came to 2.16.

B9: CL-515341 (antibody, V domains shown)
VH: QVYLVESGGGVVQPGKSLRLSCAASGFTFSNYGMHWVRQAPGKGLEWVAIIWHDGSNKFYSDSVRGRFTISRDNSQNTLYLQMNSLSAEDTALYFCAKDIGYSNTWDYFDYWGQGTLVTVSS
VL: EIVLTQSPATLSLSPGERATLSCRASQSVNSFLAWYQQKPGQAPRLLIYDASNRATDIPDRFSGSGSGTDFTLTIRSLEPEDFAVYFCQQRSKWFTFGGGTTVEMK
modifications: peptides N-terminally acetylated and C-terminally amidated
Molecule B9 had a binding score of 2.38.

B10: CL-531325 (antibody, V domains shown)
VH: QVHLVESGGGVVQPGKSLRLSCAASGFTFSNFGMHWVRQAPGKGLEWVALIWYDGSHKFYADSVQGRFTISRDNSKNTLFLQMNSLRAEDTAIYYCAKVISYGSVNYYNNYKYTMDVWGQGTTVTVSS
VL: not shown
modifications: peptides N-terminally acetylated and C-terminally amidated
Take B10: the binding score was 2.55.

B11: CL-459404 (antibody, V domains shown)
VH: QVQLVASGGGVVQPGRSLRLSCAASGFTFSNYGMHWVRQAPGKGLEWVAIIWYDGSKKYYSDSVKGRFTISRDNSKNTLNLQMNSLRAEDTAVYYCARAYGSGSYSDDYYGMDVWGQGTTVTVSS
VL: DIQMTQSPSTLSASVGDRVTITCRASQSISPWLAWFQQKPGKAPKLLIYKASNLESGVPSRFSGSGSGTEFTLTISSLQPDDFATYYCQQYYTYWTFGQGTKVEIK
modifications: peptides N-terminally acetylated and C-terminally amidated
In turn, B11 gave a binding score of 2.4.

B12: Ky15.7 (antibody, V domains shown)
VH: QVQVVESGGGAVQPGRSLRLSCAASGFTFSNRGMHWVRQTPGKGLEWVAIIWYDGGNKFYADSVKGRFTISRDNSKNTLYLQMNSLRDEDTAVYYCVRAGDWKADKYTMDVWGQGTTVTVSS
VL: B11 VL with P31S, F36Y, L46V, K50Q, N53S, Y92N, T93S
modifications: peptides N-terminally acetylated and C-terminally amidated
In turn, B12 gave a binding score of 2.3.

B13: CL-532061 (antibody, V domains shown)
VH: QVQLVESGGGVVQPGRSLRLSCVASRFTFSNYGMHWVRQTPGKGLEWVAIIWYDGSNKFYGDSVKGRFTISRDNSRNTLYLQMNNLRAEDTAVYYCARAYDDFVDHDKYGMDVWGQGTTVTVSS
VL: B11 VL with T22S, P31I, F36Y, P40S, N53R, Y92N, T93S
modifications: peptides N-terminally acetylated and C-terminally amidated
For B13, the binding score amounted to 2.47.

B14: CL-510640 (antibody, V domains shown)
VH: QVQLVESGGGVVQPGRSLRLSCAASGFTFSNYGMHWVRQAPVKGLEWVAIIWYDGSNKFYADSVRGRFIISRDNSKNTLYLQMNSLRAEDTAVYFCARAREGQNSDYYGSETSYTFDSWGLGTLVTVSS
VL: B11 VL with P31S, F36Y, L46F, N53S, Y92K, T93S
modifications: peptides N-terminally acetylated and C-terminally amidated
B14 showed a binding score of 2.16.

B15: CL-512761 (antibody, V domains shown)
VH: QVQLVESGGGVVQPGTSLRLSCAASGFTFSNYGMHWVRQAPGKGLEWVSITWYDESNKFYADSVKGRFTISRDNSKNTLYLQMNSLRAEDTAVYYCARAYDTLTGYRAQKYGMDVWGQGTTVTVSS
VL: B11 VL with S28R, P31T, F36Y, Y49N, K50E, N53R, Y92N, T93S
modifications: peptides N-terminally acetylated and C-terminally amidated
In turn, B15 came in with a binding score of 2.17.

B16: Ky15.11 (antibody, V domains shown)
VH: QVQLVESGGGVVQPGRSLRLSCEASGFTFSNFGMHWVRQTPVKGLEWVAIIWFDGSYKYYTDSVKGRFTISRDNSKNTLYLQMNSLRAEDTAVYYCARARKGQRSDYYGSETSYTFDNWGQGTLVTVSS
VL: B11 VL with S30N, P31G, F36Y, L46F, N53I, V58I, Y92S, T93S
modifications: peptides N-terminally acetylated and C-terminally amidated
Take B16: the binding score came out at 2.53.

B17: CL-531912 (antibody, V domains shown)
VH: LVQLVESGGGVVQPGRSLRLSCAASGFTFSSSGMHWVRQAPGKGLEWVAIIWYDGSNKFYADSVKGRFTISRDNSKNTLYLQMNSLRAEDTAVYYCARAYVSGSHGDKYGMDVWGQGTTVTVSS
VL: B11 VL with P31S, N53S, S76N, Y87F, Y92N, T93N
modifications: peptides N-terminally acetylated and C-terminally amidated
On to B17, for which the binding score stood at 2.64.

B18: CL-513462 (antibody, V domains shown)
VH: QVQLVESGGGVVQPGRSLRVSCAASGFTFSNYGMYWVRQAPGKGLEWVAVIWHDGTNKFYEDSVKGRFTISRDNSKNTLYLQMNSLRAEDTAVYYCARAGYFQGSGSFLDYWGQGTLVTVSS
VL: B11 VL with P31S, F36Y, N53S, Y87F, Y92S, T93S
modifications: peptides N-terminally acetylated and C-terminally amidated
The molecule B18 displayed a binding score of 2.47.

B19: CL-513808 (antibody, V domains shown)
VH: QVQLVESGGGVVQPGRSLRLSCAASGFTFSNYGMHWVRQAPGKGLEWVAIIWYDGSNKFYADSVKGRFTISRDNSKNTLYLQMNSLRAEDTAVYYCARDDRGHSYGPYFDFWGQGTLVTVSS
VL: EIVMTQSPATLSVSPGERATLSCRASQSVSSNLAWYQQKPGQAPRLLIYGASIRATGIPARFSGSGSGTEFTLTISILQSEDFAVYYCQQCNNWPWTFGQGTKVEIK
modifications: peptides N-terminally acetylated and C-terminally amidated
Molecule B19 registered a binding score of 2.17.

B20: CL-510596 (antibody, V domains shown)
VH: QVQLEESGGGVVQPGRSLRLSCTATGFTFSNYGMHWVRQAPGKGLEWVAVIWYDGSNKYYVDSVKGRFTISRDNSKNTLYLQMNSLRAEDTAVYYCARDGGYYGSGSYWWFDSWGQGTLVTVSS
VL: not shown
modifications: peptides N-terminally acetylated and C-terminally amidated
Consider B20, for which the binding score was determined as 1.64.

B21: CL-509293 (antibody, V domains shown)
VH: QVQLVASGGGVVQPGRSLRLTCAASGFTFSNYGMHWVRQSPGRGLEWVAIIWYDGSNKFYADSVKGRFTISRDNSKNTLYLQMNSLRAEDTAVYYCAKAEQRTNDNYYKYGMDVWGQGTTVTVST
VL: not shown
modifications: peptides N-terminally acetylated and C-terminally amidated
For the molecule B21, the binding score was determined as 2.12.

B22: CL-445457 (antibody, V domains shown)
VH: QVQLVESGGAVVQPGTSLRLSCAASGFTFSNYGIHWVRQAPGKGLQWVALIWYNGNNKFYADSVQGRFTISRDNSKNILYLQINSLSAEDTAVYYCARAFYSDSGNYMDYWGQGALVTVSS
VL: DIQMTQSPSSVSASVGDRVTITCRARQDISSRLAWYQQKPGKAPKILIYGASSLQSGVPSRFSASGSGTDFTLTISSLQPEDVASYFCQQANSFPWTFGQGTKVEIK
modifications: peptides N-terminally acetylated and C-terminally amidated
On to B22, for which the binding score was determined as 2.

B23: CL-447703 (antibody, V domains shown)
VH: QVQLVESGGGVVQPGRSLRLSCEASGFTFSDHGMHWVRQGPGKGLEWVSIIWYDGSNKYYADSVKGRFTISRDNSKNTLYLEMNRLRAEDTALYYCARVWNHDDYKYSMDVWGQGTTVTVSS
VL: not shown
modifications: peptides N-terminally acetylated and C-terminally amidated
Turning to B23, the binding score was found to be 2.5.

B24: CL-437862 (antibody, V domains shown)
VH: QVQLVESGGGVVQPGRSLRLSCAASGFTFSNSGMHWVRQVPGKGLEWVAIIWYDGGNKYYADSVKGRFTISRDNSKNTLYLQMNSLRAEDTAVYYCARAYYDILTSYDKDCCYGMDVWGQGTTVTVSS
VL: not shown
modifications: peptides N-terminally acetylated and C-terminally amidated
B24 yielded a binding score of 2.4.
